Results taken from the supplement of paper PMC10219994.
± gives the standard deviation of the averaged measurements.

B1: library; a variant is named by its letters at N, in order (parent)
chain: GAGACCGCAACTGAAAAGTTGTGGNNNNNATAGTGAGTCGCTGCCTGCAAAGACACAACT

Variants of: B1
Assay: ligation selection enrichment (abundance after / before one-round selection) (fold); higher = more template-directed ligation activity
Settings: with T7Psub CACGGAUGCUAAUACGACUCACUAUA; MgCl2 25 mM; 42 °C; 4 h; pH 8.5
Experimental: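 Lib-N5 ligase ribozyme library: five randomized core nucleotides (including the GGA motif of N8-1) within the fixed N8-1 ribozyme flanks, transcribed by T7 RNA polymerase with a 5'-triphosphate. The library (0.75 uM) was reacted with substrate T7Psub (6 uM) in 50 mM EPPS pH 8.5 with 25 mM MgCl2 at 42 C for 4 h. Ligated products were PAGE-purified, reverse transcribed and MiSeq sequenced; enrichment = abundance after selection / abundance before selection, with two independent replicates. The full transcript is built from the printed template flanks.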

Variant | ligation selection enrichment
TAGGG | 0.637 ± 0.12
TAGGT | 0.115 ± 0.046
TAGGC | 0.218 ± 0.0035
TAGGA | 0.998 ± 0.19
TACCG | 0.574 ± 0.048
TACCT | 0.599 ± 0.22
TAGTT | 0.218 ± 0.078
TAGTG | 0.6007 ± 0.0042
TAGTA | 0.19 ± 0.055
TAGTC | 0.182 ± 0.044
TATTC | 0.186 ± 0.0052
TATTA | 0.197 ± 0.042
TATTG | 2.17 ± 0.33
TATTT | 0.402 ± 0.22
AAGGT | 0.203 ± 0.15
AAGGG | 0.331 ± 0.0073
AAGGC | 0.146 ± 0.015
AAGGA | 0.431 ± 0.013
AACGG | 0.32 ± 0.045
AACGC | 0.197 ± 0.017
AACGA | 0.673 ± 0.067
AACGT | 0.167 ± 0.013
CACTT | 0.105 ± 0.047
CACTA | 0.157 ± 0.041

Variant | ligation selection enrichment
CACTC | 0.0626 ± 0.02
CACTG | 0.286 ± 0.0061
CAGAA | 0.343 ± 0.0039
CAGAG | 0.399 ± 0.09
CAGAC | 0.374 ± 0.044
CAGAT | 9.36 ± 2
AAGTG | 0.294 ± 0.021
AAGTA | 0.24 ± 0.059
AAGTT | 0.257 ± 0.055
AAGTC | 0.146 ± 0.018
GAGAA | 0.508 ± 0.036
GAGAT | 11.7 ± 2.6
GAGAC | 0.765 ± 0.031
GAGAG | 0.663 ± 0.061
CACGT | 0.156 ± 0.046
CACGG | 0.242 ± 0.057
CACGA | 0.471 ± 0.005
CACGC | 0.163 ± 0.014
AACTC | 0.0963 ± 0.052
AACTG | 0.506 ± 0.068
AACTA | 0.165 ± 0.013
AACTT | 0.165 ± 0.066
TATCC | 0.323 ± 0.051
TATCT | 0.379 ± 0.13

Variant | ligation selection enrichment
TATCG | 0.999 ± 0.23
TATCA | 0.404 ± 0.031
AATCG | 0.816 ± 0.11
AATCA | 0.454 ± 0.023
AATCC | 0.358 ± 0.014
AATCT | 0.451 ± 0.12
CATCC | 0.247 ± 0.012
CATCA | 0.288 ± 0.025
CATCG | 1.33 ± 0.14
CATCT | 0.541 ± 0.19
CATAG | 0.237 ± 0.014
CATAA | 0.159 ± 0.023
CATAT | 1.2 ± 0.084
CATAC | 0.183 ± 0.029
GAGTT | 0.235 ± 0.074
GAGTC | 0.168 ± 0.0064
GAGTG | 0.274 ± 0.035
GAGTA | 0.27 ± 0.053
GAGGG | 0.345 ± 0.011
GAGGC | 0.17 ± 0.017
GAGGT | 0.143 ± 0.025
GAGGA | 0.501 ± 0.11
CAGTA | 0.14 ± 0.0029
CAGTT | 0.238 ± 0.0081

Variant | ligation selection enrichment
CAGTC | 0.125 ± 0.019
CAGTG | 0.185 ± 0.004
GATTA | 0.278 ± 0.094
GATTT | 0.577 ± 0.15
GATTG | 1.47 ± 0.2
GATTC | 0.183 ± 0.0076
CATTG | 1.24 ± 0.22
CATTT | 0.539 ± 0.13
CATTA | 0.16 ± 0.038
CATTC | 0.152 ± 0.013
AATTG | 1.46 ± 0.055
AATTA | 0.421 ± 0.03
AATTT | 0.624 ± 0.11
AATTC | 0.201 ± 0.075
GATCA | 0.464 ± 0.032
GATCG | 0.78 ± 0.097
GATCT | 0.306 ± 0.085
GATCC | 0.276 ± 0.057
AATGA | 0.528 ± 0.046
AATGG | 0.467 ± 0.097
AATGC | 0.198 ± 0.015
AATGT | 0.153 ± 0.076
AATAT | 0.299 ± 0.032
AATAG | 0.39 ± 0.091

Variant | ligation selection enrichment
AATAA | 0.179 ± 0.049
AATAC | 0.183 ± 0.0067
TATGC | 0.29 ± 0.026
TATGT | 0.135 ± 0.031
TATGA | 2.32 ± 0.16
TATGG | 0.616 ± 0.093
CACCT | 0.334 ± 0.14
CACCG | 0.217 ± 0.047
TAGCA | 0.21 ± 0.016
TAGCC | 0.16 ± 0.02
TAGCT | 0.547 ± 0.17
TAGCG | 0.52 ± 0.11
TACGA | 1.32 ± 0.13
TACGG | 0.379 ± 0.026
TACGT | 0.169 ± 0.044
TACGC | 0.1908 ± 0.0012
GATGA | 0.606 ± 0.077
GATGT | 0.126 ± 0.036
GATGC | 0.247 ± 0.024
GATGG | 0.46 ± 0.1
TACTC | 0.103 ± 0.036
TACTG | 0.641 ± 0.095
TACTT | 0.0933 ± 0.018
TACTA | 0.168 ± 0.08

Variant | ligation selection enrichment
GACTT | 0.157 ± 0.075
GACTG | 0.762 ± 0.055
GACTA | 0.161 ± 0.026
GACTC | 0.111 ± 0.037
GACGC | 0.264 ± 0.024
GACGG | 0.409 ± 0.066
GACGA | 1.29 ± 0.2
GACGT | 0.154 ± 0.063
AAGAA | 0.428 ± 0.044
AAGAC | 0.661 ± 0.019
AAGAT | 16.6 ± 5
AAGAG | 0.632 ± 0.085
GACCT | 0.584 ± 0.26
CAGGT | 0.108 ± 0.023
CAGGG | 0.186 ± 0.021
CAGGC | 0.244 ± 0.12
CAGGA | 0.231 ± 0.013
GATAA | 0.189 ± 0.036
GATAC | 0.188 ± 0.058
GATAG | 0.538 ± 0.016
GATAT | 0.446 ± 0.11
CATGG | 0.226 ± 0.027
CATGC | 0.1307 ± 0.00014
CATGT | 0.109 ± 0.064

Variant | ligation selection enrichment
CATGA | 0.381 ± 0.068
TAGAA | 0.484 ± 0.075
TAGAC | 1.03 ± 0.29
TAGAG | 0.755 ± 0.058
TAGAT | 15.6 ± 3.6
GAGCA | 0.241 ± 0.082
GAGCT | 0.597 ± 0.27
GAGCG | 0.68 ± 0.023
GAGCC | 0.172 ± 0.0044
AAGCA | 0.236 ± 0.065
AAGCC | 0.188 ± 0.021
AAGCT | 0.56 ± 0.29
AAGCG | 1.09 ± 0.27
CAGCA | 0.206 ± 0.024
CAGCC | 0.14 ± 0.0077
CAGCG | 0.535 ± 0.21
CAGCT | 0.542 ± 0.24
TATAC | 0.22 ± 0.0018
TATAT | 0.817 ± 0.18
TATAA | 0.182 ± 0.077
TATAG | 0.995 ± 0.016
AACCG | 0.526 ± 0.039
AACCT | 0.845 ± 0.39
